Assay results as given in patent US20250076311A1 (Chugai, published 2025).

Columns and labels:
[1] = molecular target: T1, cynomolgus monkey FcγRIIa1 extracellular domain, His-tagged (cynomolgus monkey); assay: SPR (Biacore), 25C, KD of SG1 / KD of variant
T1 construct: also called cyno FcgRIIa1
T1 chain: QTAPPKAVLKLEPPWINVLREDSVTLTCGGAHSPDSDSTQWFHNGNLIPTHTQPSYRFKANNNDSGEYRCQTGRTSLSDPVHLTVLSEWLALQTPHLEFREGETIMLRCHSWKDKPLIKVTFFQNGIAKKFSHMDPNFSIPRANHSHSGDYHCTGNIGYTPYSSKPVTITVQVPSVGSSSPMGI

[2] = molecular target: T2, cynomolgus monkey FcγRIIa2 extracellular domain, His-tagged (cynomolgus monkey); assay: SPR (Biacore), 25C, KD of SG1 / KD of variant
T2 construct: also called cyno FcgRIIa2
T2 chain: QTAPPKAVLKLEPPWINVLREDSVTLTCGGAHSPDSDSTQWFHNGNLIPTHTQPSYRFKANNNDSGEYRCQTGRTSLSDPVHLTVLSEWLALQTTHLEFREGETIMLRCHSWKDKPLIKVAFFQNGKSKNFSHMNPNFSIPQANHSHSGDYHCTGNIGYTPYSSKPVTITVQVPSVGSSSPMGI

[3] = molecular target: T3, cynomolgus monkey FcγRIIa3 extracellular domain, His-tagged (cynomolgus monkey); assay: SPR (Biacore), 25C, KD of SG1 / KD of variant
T3 construct: also called cyno FcgRIIa3
T3 chain: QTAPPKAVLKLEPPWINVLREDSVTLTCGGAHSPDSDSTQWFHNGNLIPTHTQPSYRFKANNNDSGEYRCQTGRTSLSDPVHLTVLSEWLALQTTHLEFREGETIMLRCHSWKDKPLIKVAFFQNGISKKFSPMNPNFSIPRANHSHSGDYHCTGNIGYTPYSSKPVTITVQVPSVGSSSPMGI

[4] = molecular target: T4, cynomolgus monkey FcγRIIb extracellular domain, His-tagged (cynomolgus monkey); assay: SPR (Biacore), 25C, KD of SG1 / KD of variant
T4 construct: also called cyno FcgRIIb
T4 chain: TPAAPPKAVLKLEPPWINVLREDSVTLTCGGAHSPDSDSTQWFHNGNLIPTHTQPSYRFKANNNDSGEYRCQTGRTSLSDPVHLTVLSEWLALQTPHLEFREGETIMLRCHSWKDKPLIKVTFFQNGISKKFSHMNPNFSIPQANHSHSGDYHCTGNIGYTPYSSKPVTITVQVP

[5] = molecular target: T5, cynomolgus monkey FcγRIIIaS extracellular domain, His-tagged (cynomolgus monkey, UniProt Q8SPW2 21-206 at identity 1.00)); assay: SPR (Biacore), 25C, KD of SG1 / KD of variant
T5 construct: also called cyno FcgRIIIaS
T5 chain: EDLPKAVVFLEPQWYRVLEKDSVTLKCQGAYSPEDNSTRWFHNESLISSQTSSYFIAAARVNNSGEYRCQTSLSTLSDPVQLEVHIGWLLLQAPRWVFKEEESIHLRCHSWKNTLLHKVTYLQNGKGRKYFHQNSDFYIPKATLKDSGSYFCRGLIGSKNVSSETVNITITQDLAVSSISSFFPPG

[6] = molecular target: T6, human FcγRIIaH extracellular domain, His-tagged (human, UniProt P12318 34-217); assay: SPR (Biacore), 25C, KD of SG1 / KD of variant
T6 construct: also called human FcgRIIaH; FcγRIIa type H
T6 sequence: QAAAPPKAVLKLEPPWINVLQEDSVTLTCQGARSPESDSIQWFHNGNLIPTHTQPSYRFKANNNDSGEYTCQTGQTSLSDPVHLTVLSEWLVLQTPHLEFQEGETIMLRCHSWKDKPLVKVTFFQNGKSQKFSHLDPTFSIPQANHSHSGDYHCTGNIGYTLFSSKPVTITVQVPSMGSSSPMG

[7] = molecular target: T7, human FcγRIIaR extracellular domain, His-tagged (human, UniProt P12318 34-217); assay: SPR (Biacore), 25C, KD of SG1 / KD of variant
T7 construct: also called human FcgRIIaR; FcγRIIa type R
T7 chain: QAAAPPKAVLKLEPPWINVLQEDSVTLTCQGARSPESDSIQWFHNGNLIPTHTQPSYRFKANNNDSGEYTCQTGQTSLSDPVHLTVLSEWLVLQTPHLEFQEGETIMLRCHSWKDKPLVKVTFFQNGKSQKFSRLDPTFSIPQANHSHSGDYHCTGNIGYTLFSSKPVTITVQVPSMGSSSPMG

[8] = molecular target: T8, human FcγRIIb extracellular domain, His-tagged (human, UniProt P31994 43-217); assay: SPR (Biacore), 25C, KD of SG1 / KD of variant
T8 construct: also called human FcgRIIb
T8 sequence: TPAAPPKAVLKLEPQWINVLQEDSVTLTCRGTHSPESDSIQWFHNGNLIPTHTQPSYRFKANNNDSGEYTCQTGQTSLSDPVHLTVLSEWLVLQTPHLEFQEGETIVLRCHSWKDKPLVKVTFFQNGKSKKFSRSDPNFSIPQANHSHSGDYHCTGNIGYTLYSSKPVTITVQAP

[9] = molecular target: T9, human FcγRIIIaV extracellular domain, His-tagged (human, UniProt P08637 17-208); assay: SPR (Biacore), 25C, KD of SG1 / KD of variant
T9 construct: also called human FcgRIIIaV
T9 sequence (P08637 17-208 F176V): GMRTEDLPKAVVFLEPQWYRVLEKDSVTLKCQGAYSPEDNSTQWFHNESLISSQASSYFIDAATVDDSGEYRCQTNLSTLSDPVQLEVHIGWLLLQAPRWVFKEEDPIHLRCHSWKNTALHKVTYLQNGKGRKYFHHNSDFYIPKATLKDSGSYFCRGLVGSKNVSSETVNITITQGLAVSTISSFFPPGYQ

[10] = molecular target: T1, cynomolgus monkey FcγRIIa1 …; assay: SPR (Biacore), 25C, FcgR bound per antibody captured
Method: (§1) In the next step, cross-reactivity of these substitutions to cynoFcγRs was evaluated.
(§2) The value of the amount of FcγR binding was obtained by dividing the amount of FcγR bound by the amount of each antibody captured.

[11] = molecular target: T2, cynomolgus monkey FcγRIIa2 …; assay: as above
Method: as §1, §2

[12] = molecular target: T3, cynomolgus monkey FcγRIIa3 …; assay: as above
Method: as §1, §2

[13] = molecular target: T4, cynomolgus monkey FcγRIIb extracellular …; assay: as above
Method: as §1, §2

[14] = molecular target: T5, cynomolgus monkey FcγRIIIaS …; assay: as above
Method: as §1, §2

[15] = molecular target: T2, cynomolgus monkey FcγRIIa2 …; assay: SPR (Biacore), 25C, antibody captured, FcgR as analyte
Method: (§3) The kinetic analysis of interactions between these antibodies and FcγR was carried out using BIACORE® T200 or BIACORE® 4000 (GE Healthcare). HBS-EP+ (GE Healthcare) was used as the running buffer, and the measurement temperature was set to 25° C. […] After the measurement, the antibody captured on the chip was washed off by allowing reaction with 10 mM glycine-HCl, pH1.5 and 25 mM NaOH so that the chip was regenerated and used repeatedly. The sensorgrams obtained as measurement results were analyzed by the 1:1 Langmuir binding model using the BIACORE® Evaluation Software to calculate the binding rate constant ka (L/mol/s) and dissociation rate constant kd (1/s), and the dissociation constant KD (mol/L) was calculated from these values. […] Regarding such interactions, KD values were calculated using the following 1:1 binding model described in BIACORE® T100 Software Handbook BR1006-48 Edition AE.

[16] = molecular target: T7, human FcγRIIaR extracellular domain, …; assay: as above
Method: as §3

[17] = molecular target: T9, human FcγRIIIaV extracellular domain, …; assay: as above
Method: as §3

[18] = molecular target: T10, human FcγRIIIaV extracellular domain, His-tagged (human, UniProt P08637 17-208); assay: SPR (BIACORE), antibody captured on chip, FcγR as analyte, 25 C; KD of SG1 divided by KD of the variant
T10 construct: also called human FcγRIIIa (V158 allotype); FcgRIIIaV; not shown: His-tag added to the C-terminus
Method: as §3
T10 sequence (P08637 17-208 F176V): as above

[19] = molecular target: T11, cynomolgus monkey FcγRIIa1 extracellular domain with C-terminal His-tag (cynomolgus monkey); assay: SPR (Biacore), KD of SG1 divided by KD of variant
T11 construct: also called cyno FcgRIIa1; cynoFcγRIIa1
T11 chain: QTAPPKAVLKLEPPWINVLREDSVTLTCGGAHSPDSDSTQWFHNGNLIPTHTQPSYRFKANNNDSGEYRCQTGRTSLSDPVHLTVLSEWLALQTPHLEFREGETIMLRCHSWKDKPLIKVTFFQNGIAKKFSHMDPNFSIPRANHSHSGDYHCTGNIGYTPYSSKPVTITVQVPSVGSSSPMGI

B1: MS1032LO06-SG1 (antibody, human IgG1, kappa)
heavy: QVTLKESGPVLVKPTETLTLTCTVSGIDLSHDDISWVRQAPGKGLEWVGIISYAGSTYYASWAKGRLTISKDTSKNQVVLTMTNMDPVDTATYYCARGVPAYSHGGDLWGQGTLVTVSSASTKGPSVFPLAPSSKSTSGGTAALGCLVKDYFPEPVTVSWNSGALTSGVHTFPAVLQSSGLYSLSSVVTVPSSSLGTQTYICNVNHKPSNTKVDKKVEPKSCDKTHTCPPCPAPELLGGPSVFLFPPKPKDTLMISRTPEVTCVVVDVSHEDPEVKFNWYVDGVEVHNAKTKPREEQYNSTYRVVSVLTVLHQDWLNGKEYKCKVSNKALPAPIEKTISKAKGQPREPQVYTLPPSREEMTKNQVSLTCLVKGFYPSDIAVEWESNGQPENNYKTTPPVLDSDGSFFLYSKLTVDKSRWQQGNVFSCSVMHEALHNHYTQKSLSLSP
light: DIVMTQSPATLSLSPGERATLSCTSSQSVYHANWLSWFQQKPGQPPKLLIYWASTLAYGVPSRFSGSGSGTDFTLTISSLQPEDAATYYCAGGYGGGRYAFGQGTKVEIKRTVAAPSVFIFPPSDEQLKSGTASVVCLLNNFYPREAKVQWKVDNALQSGNSQESVTEQDSKDSTYSLSSTLTLSKADYEKHKVYACEVTHQGLSSPVTKSFNRGEC
notes: Heavy constant region SG1, light constant region SK1; also called M103205H795-SG1
- KD fold (SG1 = 1) [1]: 1
- KD fold (SG1 = 1) [2]: 1
- KD fold (SG1 = 1) [3]: 1
- KD fold (SG1 = 1) [4]: 1
- KD fold (SG1 = 1) [5]: 1
- KD fold (SG1 = 1) [6]: 1
- KD fold (SG1 = 1) [7]: 1
- KD fold (SG1 = 1) [8]: 1
- KD fold (SG1 = 1) [9]: 1
- Binding to cynoFcgRs (SG1 = 100) [10]: 100
- Binding to cynoFcgRs (SG1 = 100) [11]: 100
- Binding to cynoFcgRs (SG1 = 100) [12]: 100
- Binding to cynoFcgRs (SG1 = 100) [13]: 100
- Binding to cynoFcgRs (SG1 = 100) [14]: 100
- Kd [15]: 52 µM
- Kd [16]: 14 µM
- Kd [17]: 1.2 µM

B2: M103205H795-MY318/M103202L889-SK1 (antibody, human IgG1, kappa, name in EU numbering)
heavy: QVTLKESGPVLVKPTETLTLTCTVSGIDLSHDDISWVRQAPGKGLEWVGIISYAGSTYYASWAKGRLTISKDTSKNQVVLTMTNMDPVDTATYYCARGVPAYSHGGDLWGQGTLVTVSSASTKGPSVFPLAPSSKSTSGGTAALGCLVKDYFPEPVTVSWNSGALTSGVHTFPAVLQSSGLYSLSSVVTVPSSSLGTQTYICNVNHKPSNTKVDKKVEPKSCDKTHTCPPCPAPELLLGPSVFLFPPKPKDTLMISRTPEVTCVVVDVSEEDPEVKFNWYVDGVEVHNAKTKPREEQYNSTYRVVSVLTVLHQDWLNGKEYKCKVSNTALPKPIEKTISKAKGQPREPQVYTLPPSREEMTKNQVSLTCLVKGFYPSDIAVEWESNGQPENNYKTTPMVLDSDGSFFLYSKLTVDKSRWQQGNVFSCSVMHEALHNHYTQKSLSLSP
light: DIVMTQSPATLSLSPGERATLSCTSSQSVYHANWLSWFQQKPGQPPKLLIYWASTLAYGVPSRFSGSGSGTDFTLTISSLQPEDAATYYCAGGYGGGRYAFGQGTKVEIKRTVAAPSVFIFPPSDEQLKSGTASVVCLLNNFYPREAKVQWKVDNALQSGNSQESVTEQDSKDSTYSLSSTLTLSKADYEKHKVYACEVTHQGLSSPVTKSFNRGEC
notes: expressed with M103202L889-SK1 as light chain
- KD fold for humanFcgRs (SG1 = 1) [18]: 0.09 fold

B3: M103205H795-MY388 (second row so labelled: G236T/S239I/H268D/A330K) / M103202L889-SK1 (antibody, human IgG1, kappa, name in EU numbering)
heavy: QVTLKESGPVLVKPTETLTLTCTVSGIDLSHDDISWVRQAPGKGLEWVGIISYAGSTYYASWAKGRLTISKDTSKNQVVLTMTNMDPVDTATYYCARGVPAYSHGGDLWGQGTLVTVSSASTKGPSVFPLAPSSKSTSGGTAALGCLVKDYFPEPVTVSWNSGALTSGVHTFPAVLQSSGLYSLSSVVTVPSSSLGTQTYICNVNHKPSNTKVDKKVEPKSCDKTHTCPPCPAPELLTGPIVFLFPPKPKDTLMISRTPEVTCVVVDVSDEDPEVKFNWYVDGVEVHNAKTKPREEQYNSTYRVVSVLTVLHQDWLNGKEYKCKVSNKALPKPIEKTISKAKGQPREPQVYTLPPSREEMTKNQVSLTCLVKGFYPSDIAVEWESNGQPENNYKTTPPVLDSDGSFFLYSKLTVDKSRWQQGNVFSCSVMHEALHNHYTQKSLSLSP
light: DIVMTQSPATLSLSPGERATLSCTSSQSVYHANWLSWFQQKPGQPPKLLIYWASTLAYGVPSRFSGSGSGTDFTLTISSLQPEDAATYYCAGGYGGGRYAFGQGTKVEIKRTVAAPSVFIFPPSDEQLKSGTASVVCLLNNFYPREAKVQWKVDNALQSGNSQESVTEQDSKDSTYSLSSTLTLSKADYEKHKVYACEVTHQGLSSPVTKSFNRGEC
notes: The label MY388 is printed for two different variants; also called MY388 (second of two rows with this label)
- KD fold (SG1 = 1) [19]: 1.9 fold
